# Experimental data reported in the supplement of paper PMC10567573.
# B1: TRAF3IP2 (parent)
# chain: PRPPSNPPARGTLKTSNLPEELRK
# Variants of: B1
# Assay: protein stability index of a GFP-peptide fusion (GPS, HEK-293T) (PSI 1-6); higher = more stable
# Details: c terminus: a fixed tail appended
# 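Also: lentivirally expressed fusions sorted by FACS into six bins by GFP to DsRed ratio, PSI derived from sequencing read proportions per bin multiplied by bin number.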
row,Variant,protein stability index
1,PRPPSNPPARGTLKWSNLPEELRK [T15W],3.67
2,PRPPSNPPARGTLKQSNLPEELRK [T15Q],4.48
3,PRPPSNPPARGTLKGSNLPEELRK [T15G],4.95
4,PRPPSNPPARGTLKCSNLPEELRK [T15C],4.72
5,PRPPSNPPARGTLKRSNLPEELRK [T15R],4.52
6,PRPPSNPPARGTLKYSNLPEELRK [T15Y],4.64
7,PRPPSNPPARGTLKDSNLPEELRK [T15D],5.13
8,PRPPSNPPARGTLKMSNLPEELRK [T15M],4.43
9,PRPPSNPPARGTLKNSNLPEELRK [T15N],4.53
10,PRPPSNPPARGTLKLSNLPEELRK [T15L],4.29
11,PRPPSNPPARGTLKHSNLPEELRK [T15H],4.99
12,PRPPSNPPARGTLKFSNLPEELRK [T15F],4.29
13,PRPPSNPPARGTLKISNLPEELRK [T15I],4.14
14,PRPPSNPPARGTLKVSNLPEELRK [T15V],4.48
15,PRPPSNPPARGTLKASNLPEELRK [T15A],4.22
16,PRPPSNPPARGTLKKSNLPEELRK [T15K],4.82
17,PRPPSNPPARGTLKPSNLPEELRK [T15P],4.64
18,PRPPSNPPARGTLKESNLPEELRK [T15E],4.94
19,PRPPSNPPARGTLKSSNLPEELRK [T15S],4.79
20,PRPPSNPYARGTLKTSNLPEELRK [P8Y],4.69
21,PRPPSNPTARGTLKTSNLPEELRK [P8T],5.02
22,PRPPSNPRARGTLKTSNLPEELRK [P8R],4.43
23,PRPPSNPSARGTLKTSNLPEELRK [P8S],4.8
24,PRPPSNPVARGTLKTSNLPEELRK [P8V],5.04

row,Variant,protein stability index
1,PRPPSNPWARGTLKTSNLPEELRK [P8W],4.22
2,PRPPSNPQARGTLKTSNLPEELRK [P8Q],5.09
3,PRPPSNPPARGLLKTSNLPEELRK [T12L],4.65
4,PRPPSNPPARGALKTSNLPEELRK [T12A],4.66
5,PRPPSNPPARGHLKTSNLPEELRK [T12H],4.75
6,PRPPSNPPARGQLKTSNLPEELRK [T12Q],4.52
7,PRPPSNPPARGFLKTSNLPEELRK [T12F],4.3
8,PRPPSNPPARGVLKTSNLPEELRK [T12V],4.41
9,PRPPSNPPARGILKTSNLPEELRK [T12I],4.54
10,PRPPSNPPARGYLKTSNLPEELRK [T12Y],4.78
11,PRPPSNPPARGWLKTSNLPEELRK [T12W],3.65
12,PRPPSNPPARGRLKTSNLPEELRK [T12R],4.58
13,PRPPSNPPARGDLKTSNLPEELRK [T12D],4.88
14,PRPPSNPPARGNLKTSNLPEELRK [T12N],4.42
15,PRPPSNPPARGCLKTSNLPEELRK [T12C],4.24
16,PRPPSNPPARGGLKTSNLPEELRK [T12G],4
17,PRPPSNPPARGELKTSNLPEELRK [T12E],4.54
18,PRPPSNPPARGKLKTSNLPEELRK [T12K],4.7
19,PRPPSNPPARGSLKTSNLPEELRK [T12S],4.35
20,PRPPSNPPARGMLKTSNLPEELRK [T12M],4.56
21,PRPPSNPPAVGTLKTSNLPEELRK [R10V],5.64
22,PRPPSNPPAMGTLKTSNLPEELRK [R10M],4.64
23,PRPPSNPPALGTLKTSNLPEELRK [R10L],4.96
24,PRPPSNPPAEGTLKTSNLPEELRK [R10E],4.47

row,Variant,protein stability index
1,PRPPSNPPAGGTLKTSNLPEELRK [R10G],4.27
2,PRPPSNPPAWGTLKTSNLPEELRK [R10W],4.76
3,PRPPSNPPAFGTLKTSNLPEELRK [R10F],4.49
4,PRPPSNPPAYGTLKTSNLPEELRK [R10Y],4.89
5,PRPPSNPPACGTLKTSNLPEELRK [R10C],4.58
6,PRPPSNPPARGTGKTSNLPEELRK [L13G],4.67
7,PRPPSNPPARGTHKTSNLPEELRK [L13H],4.36
8,PRPPSNPPARGTFKTSNLPEELRK [L13F],4.37
9,PRPPSNPPARGTMKTSNLPEELRK [L13M],5.06
10,PRPPSNPPARGTTKTSNLPEELRK [L13T],4.82
11,PRPPSNPPARGTVKTSNLPEELRK [L13V],5.32
12,PRPPSNPPARGTSKTSNLPEELRK [L13S],4.94
13,PRPPSNPPARGTRKTSNLPEELRK [L13R],4.6
14,PRPPSNPPARGTEKTSNLPEELRK [L13E],5.04
15,PRPPSNPPARGTKKTSNLPEELRK [L13K],4.79
16,PRPPSNPPARGTDKTSNLPEELRK [L13D],5.09
17,PRPPSNPPARGTNKTSNLPEELRK [L13N],5.15
18,PRPPSNPPARGTCKTSNLPEELRK [L13C],3.92
19,PRPPSNPPARGTWKTSNLPEELRK [L13W],4.44
20,PRPPSNPPARGTAKTSNLPEELRK [L13A],4.52
21,PRPPSNPPARGTIKTSNLPEELRK [L13I],4.6
22,PRPPSNPPARGTYKTSNLPEELRK [L13Y],4.25
23,PRPPSNPPARGTQKTSNLPEELRK [L13Q],4.8
24,PRPPSNPPARGTLKTYNLPEELRK [S16Y],4.48

row,Variant,protein stability index
1,PRPPSNPPARGTLKTRNLPEELRK [S16R],4.79
2,PRPPSNPPARGTLKTCNLPEELRK [S16C],4.19
3,PRPPSNPPARGTLKTFNLPEELRK [S16F],4.47
4,PRPPSNPPARGTLKTMNLPEELRK [S16M],4.7
5,PRPPSNPPARGTLKTVNLPEELRK [S16V],4.17
6,PRPPSNPPARGTLKTDNLPEELRK [S16D],4.83
7,PRPPSNPPARGTLKTNNLPEELRK [S16N],4.37
8,PRPPSNPPARGTLKTQNLPEELRK [S16Q],4.48
9,PRPPSNPPARGTLKTANLPEELRK [S16A],4.41
10,PRPPSNPPARGTLKTHNLPEELRK [S16H],4.33
11,PRPPSNPPARGTLKTWNLPEELRK [S16W],3.47
12,PRPPSNPPARGTLKTENLPEELRK [S16E],4.95
13,PRPPSNPPARGTLKTLNLPEELRK [S16L],4.75
14,PRPPSNPPARGTLKTTNLPEELRK [S16T],4.92
15,PRPPSNPPARGTLKTKNLPEELRK [S16K],4.74
16,PRPPSNPPARGTLKTINLPEELRK [S16I],4.49
17,PRPPSNPPARGTLKTGNLPEELRK [S16G],4.79
18,PRPPSNPPARGTLKTSDLPEELRK [N17D],5.09
19,PRPPSNPPARGTLKTSWLPEELRK [N17W],3.51
20,PRPPSNPPARGTLKTSPLPEELRK [N17P],5.08
21,PRPPSNPPARGTLKTSILPEELRK [N17I],4.55
22,PRPPSNPPARGTLKTSLLPEELRK [N17L],4.49
